Reference: paper PMC5308003

Molecular target: T1, 6His-OxyR-Like (Magnetospirillum gryphiswaldense MSR-1) (UniProt V6F1S1)
T1 sequence: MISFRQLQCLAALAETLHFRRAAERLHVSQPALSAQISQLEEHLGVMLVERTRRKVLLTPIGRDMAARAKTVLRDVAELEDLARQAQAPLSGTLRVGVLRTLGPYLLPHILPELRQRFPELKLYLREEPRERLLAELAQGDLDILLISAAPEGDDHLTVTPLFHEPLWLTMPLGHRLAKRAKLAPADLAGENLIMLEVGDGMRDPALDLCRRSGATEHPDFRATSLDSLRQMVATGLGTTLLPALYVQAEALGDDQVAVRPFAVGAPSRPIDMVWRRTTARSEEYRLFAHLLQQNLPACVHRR
Assay: EMSA
Conditions: EMSA: DIG Gel Shift Kit 2nd Gen (Roche) binding buffer with 1 uL poly[d(I-C)], 20 uL, 25 C 30 min, 5% native PAGE in 0.5x TBE; footprinting: 1000 ng labeled …

Sequence | binding
CAGGGCAGGATGATGTGAGTGCGTAGACAGATAGGTAAACCAACCTTCCCTTTTAGGCAAGGCGTTTCGCCGTCAAAAATGCTTATATTGCAATGCAATAATGGCAATTAACTGGATAATAGTTATTTATCAAAACCTAACCAGATGGGCGGGCAACGGGTGGTGCGATGCAGCAATCCTTTTGCCTCATCGGGTTAGCGCCTGACAGGGATATTGGGAGCGGGCAAACACTTGAAAACCCACCCGGCGGACAAAATCGCGCCAACCGGTCCATTTCACAATGCACCCATTCAGAGCAAA (double strand) [pdh promoter EMSA probe] | binds
CGGCACTTGTTCCATGAACTTCGACCATATCGCTCTCCCATTCAACCAATTGTTAGCCTTGGGCTTGGCGATATTCTAACCGTTCCTCCATTCAACTCATACAGATGTGGTTTAGAAGCTTTTTAATAAATACTTGAGGGTCCGGAAATCATTAGCCGAACCCTCAATAGCCTCAGCTATGCAGGCCGGGGGCTTCATGTCCGGTGCGGGCCACGTATTCGGTGTAGCCGC (double strand) [katG promoter EMSA probe] | no binding
CTTGATCCCGATAATCTGCTGATCGTGGTGGTCGGCAAGCCGGAAGGGGTCAACGGCACGCCCTAACCCGAAAAGACGGCGGCGGCAAAAATCAACGCCGCCCAGTGATCCGTTTCTCCCGTGACACCGTAGAAGGGTCATAAGGAGAAACGCGATGCCTCGGATCATCAAGATTGTTGCCGGCGCTTTGGCCACCTGTCTGGCGGCGACGGCCCCGGCCAAGGCCAGTGGTGCTGTCTTGGACT (double strand) [bsaA promoter EMSA probe] | no binding
GGGCGAAGAATGGACATCGTCGTCTCCATTAGGCTGTTGTCCGTGATTGAGACTATGCCCCCTTCTTTGTGATAATTCTAATCGATATATCTTGAGATATTGATAGTAAATTGTTATCAGTGATCCATGATCAGCTTTCGCCAATTACAATGCCT (double strand) [oxyR-Like promoter EMSA probe] | binds
TGGGCTGTTGCTTGTCTTATCTTTTTTCATTTCCGCCTCACAGGCTGAATTATCTGAAAAGGAAATAGATGAGGATCAGGACTGGGATGGGAACGCCAACCAGCCAGAGAAGGCCGTATTTCATTTCCTACCTCGCTGTTCTGCCGGTGTGTCATGGGGCAATGGAGCCGTCCTGATACAAGA (double strand) [katE promoter EMSA probe] | no binding
